The record followed here is article PMC3571956.

The target of assay [1] is HEV ORF3 and GFP1 fusion protein (genotype 1) (hepatitis E virus genotype 1 (W2-1 strain)). Put plainly: co-IP; Matchmaker Chemiluminescent Co-IP System; 293FT cells co-transfected with pAcGFP1-ORF3 and pProLabel-prey, lysed at 48 h; precipitated with anti-AcGFP (GFP1) polyclonal antibody; ProLabel chemiluminescence (RLU) read on the beads.
Assay [2] has the same target. Put plainly: co-IP; Matchmaker Chemiluminescent Co-IP System; 293FT cells co-transfected with pAcGFP1-ORF3 and pProLabel-prey, lysed at 48 h; precipitated with anti-HEV ORF3 polyclonal antibody; ProLabel chemiluminescence (RLU) read on the beads; three independent tests.

B1: Hemopexin, ProLabel fusion (natural protein)
chain: TPLPPTSAHGNVAEGETKPDPDVTERCSDGWSFDATTLDDNGTMLFFKGEFVWKSHKWDRELISERWKNFPSPVDAAFRQGHNSVFLIKGDKVWVYPPEKKEKGYPKLLQDEFPGIPSPLDAAVECHRGECQAEGVLFFQGDREWFWDLATGTMKERSWPAVGNCSSALRWLGRYYCFQGNQFLRFDPVRGEVPPRYPRDVRDYFMPCPGRGHGHRNGTGHGNSTHHGPEYMRCSPHLVLSALTSDNHGATYAFSGTHYWRLDTSRDGWHSWPIAHQWPQGPSAVDAAFSWEEKLYLVQGTQVYVFLTKGGYTLVSGYPKRLEKEVGTPHGIILDSVDAAFICPGSSRLHIMAGRRLWWLDLKSGAQATWTELPWPHEKVDGALCMEKSLGPNSCSANGPGLYLIHGPNLYCYSDVEKLNAAKALPQPQNVTSLLGCTH
With B1, the chemiluminescent intensity was 614 RLU in assay [1] and 1140 RLU in assay [2].
